Legend:
HLA-A*6802 (human) [1] = assay: competition for purified HLA vs 125I-labelled probe peptide, gel filtration; conditions: remark: other sources report otherwise
HLA-A*0201 (human) [2] = assay: competitive inhibition of 125I-labeled probe peptide binding to purified HLA-A*0201; conditions: remark: other sources report otherwise
HLA-A*0301 (human) = assay: inhibition of 125I-labelled probe peptide binding to purified HLA-A*0301, gel filtration; ratio to standard peptide 941.12 ([..], 11 nM); conditions: remark: other sources report otherwise
HLA-A*0101 (human) [3] = assay: competition with 125I-labelled probe peptide for purified HLA-A*0101, gel filtration; conditions: remark: other sources report otherwise; scale: ratio
HLA-A*0101 (human) [4] = assay: competition with 125I-labelled probe peptide for purified HLA-A*0101, gel filtration; relative to standard peptide; conditions: remark: other sources report otherwise
HLA-A*1101 (human) [5] = assay: inhibition of 125I-labelled probe peptide binding to purified HLA-A*1101, gel filtration; conditions: remark: other sources report otherwise
HLA-A*0101 (human) [6] = assay: competition with 125I-labelled probe peptide for purified HLA-A*0101, gel filtration; ratio = IC50 of standard peptide 944.02 / IC50 of test peptide; conditions: remark: other sources report otherwise
HLA-DR3 (human) = target: T1, HLA-DR3 (human); assay: competitive inhibition of 125I-labeled probe peptide binding to purified HLA-DR3; conditions: remark: other sources report otherwise
T1 chain 1: not shown
T1 chain 2: not shown

HLA-A*6802 (human) [7] = assay: competition with 125I probe peptide for purified HLA; conditions: remark: other sources report otherwise
HLA-A*0201 (human) [8] = assay: inhibition of 125I-labelled probe peptide binding to purified HLA, gel filtration; conditions: remark: other sources report otherwise; scale: ratio
HLA-DRB1*0101 (human) [9] = target: T2, HLA-DRB1*0101 (human); assay: competition with 125I probe peptide, purified HLA; conditions: remark: other sources report otherwise
T2 chain 1: not shown
T2 chain 2: not shown

HLA-DRB1*0101 (human) [10] = target: T2, HLA-DRB1*0101 (human); assay: inhibition of 125I probe peptide binding to purified HLA-DR, gel filtration; conditions: remark: other sources report otherwise
HLA-A*1101 (human) [11] = assay: competitive inhibition of 125I-labeled probe peptide binding to purified HLA-A*1101, gel filtration; conditions: remark: other sources report otherwise; scale: ratio
[12] = target: HLA-A*0101 (purified HLA class I molecule) (human); assay: competition with 125I-labelled standard peptide on purified HLA-A*0101, gel filtration; conditions: remark: other sources report otherwise
HLA-A*3101 (human) = assay: competition with 125I-labelled standard peptide for purified HLA; gel filtration; conditions: remark: other sources report otherwise
[13] = target: T3, HLA-DR3 (DRB1*0301) (human); assay: competition binding assay, purified HLA, 125I-labelled probe peptide, gel filtration; conditions: remark: other sources report otherwise
T3 chain 1: not shown
T3 chain 2: not shown

HLA-DRB1*1101 (human) [14] = target: T4, HLA-DRB1*1101 (human); assay: competition with 125I-labelled standard peptide, purified HLA-DR, gel filtration; conditions: remark: other sources report otherwise
T4 chain 1: not shown
T4 chain 2: not shown

HLA-DRB1*0101 (human) [15] = target: T2, HLA-DRB1*0101 (human); assay: as above; conditions: remark: other sources report otherwise
HLA-DRB1*1101 (human) [16] = target: T4, HLA-DRB1*1101 (human); assay: inhibition of 125I probe peptide binding to purified HLA-DR, gel filtration; conditions: remark: other sources report otherwise
HLA-DRB1*0301 (human) = target: T5, HLA-DRB1*0301 (human); assay: competition with 125I-labeled standard peptide, purified HLA-DR, gel filtration; conditions: remark: other sources report otherwise
T5 chain 1: not shown
T5 chain 2: not shown

HLA-A*6802 (human) [17] = assay: competition with 125I-labelled probe peptide for purified HLA, gel filtration; conditions: remark: other sources report otherwise
[18] = target: T3, HLA-DR3 (DRB1*0301) (human); assay: competition with 125I-labelled probe peptide on purified HLA-DR, gel filtration; IC50 of standard peptide / IC50 of test peptide; conditions: remark: other sources report otherwise
HLA-DRB1*1302 (human) = target: T6, HLA-DRB1*1302 (human); assay: inhibition of 125I probe peptide binding to purified HLA-DR, gel filtration; conditions: remark: other sources report otherwise
T6 chain 1: not shown
T6 chain 2: not shown

HLA-DRB1*0701 (human) [19] = target: T7, HLA-DRB1*0701 (human); assay: competition with 125I probe peptide, purified HLA; conditions: remark: other sources report otherwise
T7 chain 1: not shown
T7 chain 2: not shown

HLA-DRB1*0701 (human) [20] = target: T7, HLA-DRB1*0701 (human); assay: inhibition of 125I probe peptide binding to purified HLA-DR, gel filtration; conditions: remark: other sources report otherwise
HLA-B*5301 (human) = assay: competition vs 125I-labeled standard peptide, purified HLA; conditions: remark: other sources report otherwise
HLA-B*5401 (human) = assay: as above; conditions: remark: other sources report otherwise
HLA-B*0702 (human) = assay: competition with 125I-labelled probe peptide for purified HLA, gel filtration; conditions: scale: ratio
HLA-A*0201 (human) [21] = assay: competition for purified HLA vs 125I-labelled probe peptide, gel filtration; conditions: remark: other sources report otherwise

CLTSTVQLV [Her2/neu.789]
IC50 (HLA-A*6802 (human) [1]): 8 µM
IC50 (HLA-A*0201 (human) [2]): < 500 nM

FTHQSDVWSY [HER2/neu peptide, position 899, 10 amino acids]
relative binding ratio (IC50 of standard peptide / IC50 of test peptide) (HLA-A*0301 (human)): 0.0003
relative binding ratio (HLA-A*0101 (human) [3]): 2.7
relative binding ratio (IC50 of standard peptide / IC50 of test peptide) (relative binding ratio) (HLA-A*0101 (human) [4]): 2.7
relative binding ratio (IC50 of standard peptide / IC50 of test peptide) (relative binding ratio) (HLA-A*1101 (human) [5]): 0.0005
relative binding ratio (HLA-A*0101 (human) [6]): 2.7

FESMPNPEGRY [HER2/neu peptide, position 279, 11 amino acids]
relative binding ratio (IC50 of standard peptide / IC50 of test peptide) (relative binding ratio) (HLA-A*0101 (human) [4]): 0.0049

WDQLFRNPHQALLHT [Her2/neu.482]
IC50 (HLA-DR3 (human)): < 1000 nM

CLTSTVQLV [Her2/neu.789 …]
IC50 (HLA-A*6802 (human) [7]): 8 µM

TLQGLGISWL [HER2/neu peptide, position 444, 10 amino acids]
relative binding ratio (HLA-A*0201 (human) [8]): 0.0011

CKKIFGSLAFLPESF [Her2/neu.367]
IC50 (HLA-DRB1*0101 (human) [9]): 21 nM
IC50 (HLA-DRB1*0101 (human) [10]): 21 nM

CMQIAKGMSY [HER2/neu peptide, position 826, 10 amino acids]
relative binding ratio (HLA-A*0101 (human) [3]): 0.3
relative binding ratio (HLA-A*1101 (human) [11]): 0.0001
relative binding ratio (IC50 of standard peptide / IC50 of test peptide) (relative binding ratio) (HLA-A*0101 (human) [4]): 0.3
relative binding ratio (IC50 of standard peptide / IC50 of test peptide) [12]: 0.3

VLVKSPNHV [HER2/neu peptide, position 851, 9 amino acids]
relative binding ratio (HLA-A*0201 (human) [8]): 0.0002

LVARNVLVK (modifications not checked) [Her2/neu.846.V2]
IC50 (HLA-A*3101 (human)): 9 µM

LQGLPREYVNARHCL [HER2/neu peptide … (position 547)]
relative binding ratio (ratio to standard peptide) [13]: -0.0027

VWELMTFGAKPYDGI [Her2/neu.912]
IC50 (HLA-DRB1*1101 (human) [14]): 3700 nM
IC50 (HLA-DRB1*0101 (human) [15]): 58 nM
IC50 (HLA-DRB1*0101 (human) [9]): 58 nM
IC50 (HLA-DRB1*1101 (human) [16]): 3700 nM
IC50 (HLA-DRB1*0101 (human) [10]): 58 nM

PESFDGDPASNTAPL [HER2/neu DR supermotif exemplary peptide … (position 378)]
relative binding ratio (ratio (standard IC50 / test IC50)) (HLA-DRB1*0301 (human)): -0.0027

LLDHVRENR [Her2/neu.806]
IC50 (HLA-A*3101 (human)): 0.5 µM

FSPAFDNLYY [HER2/neu peptide, position 1213, 10 amino acids]
relative binding ratio (IC50 of standard peptide / IC50 of test peptide) (HLA-A*0301 (human)): 0.0005
relative binding ratio (HLA-A*0101 (human) [3]): 5.5
relative binding ratio (IC50 of standard peptide / IC50 of test peptide) (relative binding ratio) (HLA-A*0101 (human) [4]): 5.5
relative binding ratio (IC50 of standard peptide / IC50 of test peptide) (relative binding ratio) (HLA-A*1101 (human) [5]): 0.001
relative binding ratio (IC50 of standard peptide / IC50 of test peptide) [12]: 5.5

VVLGVVFGI [Her2/neu.665]
IC50 (HLA-A*6802 (human) [1]): 2 µM
IC50 (HLA-A*0201 (human) [2]): < 500 nM
IC50 (HLA-A*6802 (human) [17]): 2000 nM

CYGLGMEHLREVRAV [HER2/neu peptide … (position 342)]
relative binding ratio [18]: 0.0083
relative binding ratio (ratio to standard peptide) [13]: 0.0083

ETELRKVKVLGSGAF [Her2/neu.717]
IC50 (HLA-DRB1*1302 (human)): 2500 nM

VVLGVVFGI [Her2/neu.665 …]
IC50 (HLA-A*6802 (human) [7]): 2 µM

LQRYSEDPTVPLPSE [HER2/neu DR supermotif exemplary peptide … (position 1109)]
relative binding ratio (ratio (standard IC50 / test IC50)) (HLA-DRB1*0301 (human)): 0.027

TVQLVTQLMPYGCLL [Her2/neu.793]
IC50 (HLA-DRB1*0701 (human) [19]): 2500 nM
IC50 (HLA-DRB1*0101 (human) [9]): 22 nM
IC50 (HLA-DRB1*0701 (human) [20]): 2500 nM
IC50 (HLA-DRB1*0101 (human) [10]): 22 nM

LQRYSEDPTVPLPSE [HER2/neu peptide … (position 1109)]
relative binding ratio (ratio to standard peptide) [13]: 0.027

FRELVSEFSRMARDP [HER2/neu peptide … (position 969)]
relative binding ratio [18]: 0.071
relative binding ratio (ratio to standard peptide) [13]: 0.071

ASPLTSIISAVVGIL [Her2/neu.648]
IC50 (HLA-DRB1*1302 (human)): 73 nM

KPYDGIPA [Her2/neu.921, 8-mer]
IC50 (HLA-B*5301 (human)): 490 nM
IC50 (HLA-B*5401 (human)): 29 nM

LPQPPICTIDV (modifications not checked) [HER2/neu peptide, position 941, 11 amino acids]
relative binding ratio (HLA-B*0702 (human)): 0.0032

TLSPGKNGV [HER2/neu peptide, position 1172, 9 amino acids]
relative binding ratio (HLA-A*0201 (human) [8]): 0.0002

GPKHSDCLA [HER2/neu peptide, position 246, 9 amino acids]
relative binding ratio (HLA-B*0702 (human); remark: other sources report otherwise): 0.0001

VLGVVFGILIKRRQQ [Her2/neu.666]
IC50 (HLA-DRB1*1101 (human) [14]): 43 nM
IC50 (HLA-DRB1*1101 (human) [16]): 43 nM

VMAGVGSPYV [Her2/neu.773]
IC50 (HLA-A*0201 (human) [21]): 200 nM
IC50 (HLA-A*0201 (human) [2]): < 500 nM

PESFDGDPASNTAPL [HER2/neu peptide … (position 378)]
relative binding ratio (ratio to standard peptide) [13]: -0.0027

LSVFQNLQVIRGRIL [Her2/neu.422]
IC50 (HLA-DRB1*0701 (human) [19]): 86 nM
IC50 (HLA-DRB1*0101 (human) [9]): 28 nM
IC50 (HLA-DRB1*0701 (human) [20]): 86 nM
IC50 (HLA-DRB1*0101 (human) [10]): 28 nM

NLELTYLPTNASLSF [Her2/neu.59]
IC50 (HLA-DRB1*0101 (human) [9]): 11 nM
IC50 (HLA-DRB1*0101 (human) [10]): 11 nM

SRLLGICLTSTVQLV [Her2/neu.783]
IC50 (HLA-DRB1*0101 (human) [15]): 14 nM
IC50 (HLA-DRB1*0101 (human) [9]): 14 nM
IC50 (HLA-DRB1*0101 (human) [10]): 14 nM

LQGLPREYVNARHCL [HER2/neu DR supermotif exemplary peptide … (position 547)]
relative binding ratio (ratio (standard IC50 / test IC50)) (HLA-DRB1*0301 (human)): -0.0027

Source: patent US20040018971A1
